From patent publication US10175123B2, “MEMS-based calorimeter, fabrication, and use thereof” (THE TRUSTEES OF COLUMBIA UNIVERSITY IN THE CITY OF NEW YORK, priority 2013, dated 2019)

What was measured:
[1] = MEMS DSC measurement of lysozyme unfolding; format: physicochemical; details: 1 to 20 mg/mL in 0.1 M Glycine-HCl buffer pH 2.5, scan 25-75 °C at 5 °C/min
Description: DSC measurements of biomolecules were performed using the calibrated microdevice, whose sample chamber and reference chamber were respectively filled with biological sample and buffer solutions, scanned in a range of temperature of interest. The temperature sensors were used to monitor the temperatures of calorimetric chambers while the device output was obtained in real time to compute the biomolecular thermal power. Before DSC measurements, the baseline in device output, i.e., the thermopile output voltage in the absence of a differential power input, during temperature scanning was measured with both calorimetric chambers filled with buffer solutions. […]
The thermopile output voltage as a function of temperature, corrected by baseline subtraction, was measured at varying protein concentrations ranging from 1 to 20 mg/mL (FIG. 10).
Despite the amplitude difference of device output at various protein concentrations, they all yielded consistent estimates of the thermodynamic properties associated with the protein unfolding process. In particular, the profile shape of c was generally not influenced by protein concentration, and ΔH was consistently determined to be approximately 450 kJ/mol with a corresponding melting temperature Tm of approximately 55° C.

[2] = MEMS AC-DSC measurement of lysozyme unfolding; format: physicochemical; details: 10 and 20 mg/mL, 0.1 M Glycine-HCl pH 2.5, 25 to 82 °C at 5 °C/min, AC modulation 1, 5 or 10 Hz; depends on modulation frequency
Description: The MEMS AC-DSC device calibrated above was used to measure the thermal behavior of protein unfolding.
Meanwhile, the specific heat capacity (c) of the protein as a function of temperature can be computed from the thermopile voltage amplitude (FIG. 19).

[3] = typical range of published data; cited from earlier work
[4] = Polymer MEMS DSC measurement of lysozyme unfolding; format: physicochemical; details: 0.1 M Glycine-HCl buffer pH 2.5, 5 K/min, all concentrations except 1 mg/mL
Description: Before DSC measurements, the baseline, i.e., the thermopile output voltage in the absence of a differential power input, during temperature scanning in the range of interest was recorded with both calorimetric channels filled with buffer solutions. After which, characterizations of biomolecules were performed with the calorimetric channels, respectively filled with a biological sample and a buffer solutions, and scanned in the same range with pre-specified rate. The temperature sensors were used to monitor the temperatures of calorimetric channels, while the device output was obtained in real time to compute the biomolecular thermal power.
The calibrated polymer MEMS DSC device was then exploited to characterize protein unfolding. Glycine-HCl buffer (0.1 M, pH 2.5) was filled in both sample and reference calorimetric channels while the device was scanned at a constant rate of 5 K/min. […]
The thermopile differential voltage as a function of temperature, corrected by baseline subtraction, was measured at varying concentrations ranging from 1 to 20 mg/mL (FIG. 42). […] Furthermore, the differential heat capacity as a function of temperature and the calibrated device sensitivity can be calculated from the device voltage output by Equation 7. The sample heat capacity as a function of temperature was determined by: […]

## lysozyme: targeted sample biomolecule, purchased from Sigma Aldrich (lyophilized powder, protein ≥90%)
[1]
  melting temperature Tm: approximately 55 °C
  total change of molar enthalpy (ΔH) of unfolding: approximately 450 kJ/mol
[2]
  apparent melting temperature (Tm): 55-58 °C
[3]
  Tm, published data: 55-58.9 °C
  ΔH of unfolding, published data: 90.1 to 105 kcal/mol
[4]
  melting temperature Tm: 54.71 °C
  total enthalpy change per mole (ΔH) of unfolding: 101 kcal/mol
